Experiments:
[1] = target: T1, SHEL (synthetic human elastin; recombinant human tropoelastin splice form)
T1 chain: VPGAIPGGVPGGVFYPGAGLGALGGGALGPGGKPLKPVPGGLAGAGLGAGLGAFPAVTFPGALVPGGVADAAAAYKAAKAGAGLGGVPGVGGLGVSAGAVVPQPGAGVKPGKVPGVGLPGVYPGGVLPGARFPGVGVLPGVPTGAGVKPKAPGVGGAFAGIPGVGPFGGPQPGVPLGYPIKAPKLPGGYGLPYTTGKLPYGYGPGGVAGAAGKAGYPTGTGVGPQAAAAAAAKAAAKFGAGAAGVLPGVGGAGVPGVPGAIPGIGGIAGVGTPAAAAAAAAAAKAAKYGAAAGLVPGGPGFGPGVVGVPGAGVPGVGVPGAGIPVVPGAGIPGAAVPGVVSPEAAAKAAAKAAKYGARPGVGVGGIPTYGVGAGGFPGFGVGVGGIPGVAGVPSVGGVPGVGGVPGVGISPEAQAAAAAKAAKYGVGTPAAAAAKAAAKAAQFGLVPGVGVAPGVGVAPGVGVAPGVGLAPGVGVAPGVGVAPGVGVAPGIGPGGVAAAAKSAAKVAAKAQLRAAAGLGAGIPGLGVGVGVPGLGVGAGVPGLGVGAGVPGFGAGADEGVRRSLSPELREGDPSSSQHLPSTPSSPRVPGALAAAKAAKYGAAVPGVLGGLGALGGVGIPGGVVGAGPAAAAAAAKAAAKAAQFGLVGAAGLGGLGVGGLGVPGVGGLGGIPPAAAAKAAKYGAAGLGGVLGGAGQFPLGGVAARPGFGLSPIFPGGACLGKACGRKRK

[2] = target: T2, SHELδ26A (SHEL lacking the sequence of exon 26A)
T2 chain: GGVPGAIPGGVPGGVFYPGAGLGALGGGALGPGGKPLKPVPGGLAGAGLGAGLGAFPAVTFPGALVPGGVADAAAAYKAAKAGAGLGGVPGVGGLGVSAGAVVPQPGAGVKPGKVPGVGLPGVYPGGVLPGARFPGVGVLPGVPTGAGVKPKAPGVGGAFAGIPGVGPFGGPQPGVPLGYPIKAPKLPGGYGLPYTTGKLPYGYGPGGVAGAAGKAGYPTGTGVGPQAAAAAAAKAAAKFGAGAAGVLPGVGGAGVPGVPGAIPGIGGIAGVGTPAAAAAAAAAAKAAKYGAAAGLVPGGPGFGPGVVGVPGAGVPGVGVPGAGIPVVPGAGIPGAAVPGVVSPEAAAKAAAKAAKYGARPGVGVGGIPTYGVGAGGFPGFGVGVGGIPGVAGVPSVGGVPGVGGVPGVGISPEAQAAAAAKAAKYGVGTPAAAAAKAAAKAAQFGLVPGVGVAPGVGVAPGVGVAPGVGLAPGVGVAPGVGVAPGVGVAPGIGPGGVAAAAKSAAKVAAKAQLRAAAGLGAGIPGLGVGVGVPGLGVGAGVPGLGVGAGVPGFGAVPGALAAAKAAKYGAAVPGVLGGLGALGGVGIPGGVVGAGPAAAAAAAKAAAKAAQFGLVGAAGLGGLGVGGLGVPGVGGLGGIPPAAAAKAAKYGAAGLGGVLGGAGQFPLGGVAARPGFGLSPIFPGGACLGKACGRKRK

[3] = target: T3, serine protease site peptide (SPS-peptide), N-…-C
T3 chain: KAQLRAAAGLGAGI

B1: human leukocyte elastase (HLE) (Sigma) (protein)
chain: IVGGRRARPHAWPFMVSLQLRGGHFCGATLIAPNFVMSAAHCVANVNVRAVRVVLGAHNLSRREPTRQVFAVQRIFENGYDPVNLLNDIVILQLNGSATINANVQVAQLPAQGRRLGNGVQCLAMGWGLLGRNRGIASVLQELNVTVVTSLCRRSNVCTLVRGRQAGVCFGDSGSPLVCNGLIHGIASFVRGGCASGLYPDAFAPVAQFVNWIDSIIQ
Q: Which results are given for B1?
A: degradation of SHEL by human leukocyte elastase, SDS-PAGE [1]: numerous fragments were seen with two prominent fragments at 32 and 18 kDa; degradation of SHELδ26A by human leukocyte elastase, SDS-PAGE [2]: SHELδ26A produced a similar profile but with a series of fragments appearing 4 kDa smaller; amount of full-length SHEL after HLE digestion with SPS-peptide, SDS-PAGE and densitometry [3]: SPS-peptide also resulted in more full-length SHEL using thrombin and HLE but to a lesser extent

B2: Gelatinase A (72 kDa gelatinase) (protein)
chain: YNFFPRKPKWDKNQITYRIIGYTPDLDPETVDDAFARAFQVWSDVTPLRFSRIHDGEADIMINFGRWEHGDGYPFDGKDGLLAHAFAPGTGVGGDSHFDDDELWTLGEGQVVRVKYGNADGEYCKFPFLFNGKEYNSCTDTGRSDGFLWCSTTYNFEKDGKYGFCPHEALFTMGGNAEGQPCKFPFRFQGTSYDSCTTEGRTDGYRWCGTTEDYDRDKKYGFCPETAMSTVGGNSEGAPCVFPFTFLGNKYESCTSAGRSDGKMWCATTANYDDDRKWGFCPDQGYSLFLVAAHEFGHAMGLEHSQDPGALMAPIYTYTKNFRLSQDDIKGIQELYGASPDIDLGTGPTPTLGPVTPEICKQDIVFDGIAQIRGEIFFFKDRFIWRTVTPRDKPMGPLLVATFWPELPEKIDAVYEAPQEEKAVFFAGNEYWIYSASTLERGYPKPLTSLGLPPDVQRVDAAFNWSKNKKTYIFAGDKFWRYNEVKKKMDPGFPKLIADAWNAIPDNLDAVVDLQGGGHSYFFKGAYYLKLENQSLKSVKFGSIKSDWLGC
Q: With B2 as the protein, how does the “digestion of SHEL by APMA-treated gelatinase A, SDS-PAGE” value [1] read?
A: Digestion with gelatinase A and gelatinase B (each previously treated with APMA) of SHEL revealed SDS-PAGE patterns of preferentially digested fragments

B3: Gelatinase B (92 kDa gelatinase) (protein)
chain: MRTPRCGVPDLGRFQTFEGDLKWHHHNITYWIQNYSEDLPRAVIDDAFARAFALWSAVTPLTFTRVYSRDADIVIQFGVAEHGDGYPFDGKDGLLAHAFPPGPGIQGDAHFDDDELWSLGKGVVVPTRFGNADGAACHFPFIFEGRSYSACTTDGRSDGLPWCSTTANYDTDDRFGFCPSERLYTQDGNADGKPCQFPFIFQGQSYSACTTDGRSDGYRWCATTANYDRDKLFGFCPTRADSTVMGGNSAGELCVFPFTFLGKEYSTCTSEGRGDGRLWCATTSNFDSDKKWGFCPDQGYSLFLVAAHEFGHALGLDHSSVPEALMYPMYRFTEGPPLHKDDVNGIRHLYGPRPEPEPRPPTTTTPQPTAPPTVCPTGPPTVHPSERPTAGPTGPPSAGPTGPPTAGPSTATTVPLSPVDDACNVNIFDAIAEIGNQLYLFKDGKYWRFSEGRGSRPQGPFLIADKWPALPRKLDSVFEERLSKKLFFFSGRQVWVYTGASVLGPRRLDKLGLGADVAQVTGALRSGRGKMLLFSGRRLWRFDVKAQMVDPRSASEVDRMFPGVPLDTHDVFQYREKAYFCQDRFYWRVSSRSELNQVDQVGYVTYDILQCPED
Q: How did the “digestion of SHEL by APMA-treated gelatinase B, SDS-PAGE” value [1] turn out when B3 was run?
A: Digestion with gelatinase A and gelatinase B (each previously treated with APMA) of SHEL revealed SDS-PAGE patterns of preferentially digested fragments

B4: human plasmin (Sigma) (protein)
chain: KVYLSECKTGNGKNYRGTMSKTKNGITCQKWSSTSPHRPRFSPATHPSEGLEENYCRNPDNDPQGPWCYTTDPEKRYDYCDILECEEECMHCSGENYDGKISKTMSGLECQAWDSQSPHAHGYIPSKFPNKNLKKNYCRNPDRELRPWCFTTDPNKRWELCDIPRCTTPPPSSGPTYQCLKGTGENYRGNVAVTVSGHTCQHWSAQTPHTHNRTPENFPCKNLDENYCRNPDGKRAPWCHTTNSQVRWEYCKIPSCDSSPVSTEQLAPTAPPELTPVVQDCYHGDGQSYRGTSSTTTTGKKCQSWSSMTPHRHQKTPENYPNAGLTMNYCRNPDADKGPWCFTTDPSVRWEYCNLKKCSGTEASVVAPPPVVLLPDVETPSEEDCMFGNGKGYRGKRATTVTGTPCQDWAAQEPHRHSIFTPETNPRAGLEKNYCRNPDGDVGGPWCYTTNPRKLYDYCDVPQCAAPSFDCGKPQVEPKKCPGRVVGGCVAHPHSWPWQVSLRTRFGMHFCGGTLISPEWVLTAAHCLEKSPRPSSYKVILGAHQEVNLEPHVQEIEVSRLFLEPTRKDIALLKLSSPAVITDKVIPACLPSPNYVVADRTECFITGWGETQGTFGAGLLKEAQLPVIENKVCNRYEFLNGRVQSTELCAGHLAGGTDSCQGDSGGPLVCFEKDKYILQGVTSWGLGCARPNKPGVYVRVSRFVTWIEGVMRNN
Q: What does the source list for B4?
A: degradation of SHEL by human plasmin, SDS-PAGE [1]: Major bands could be isolated using low concentration plasmin at 55, 45, 40, 34, 28, 22 and 18 kDa; amount of full-length SHEL after plasmin digestion with a 100:1 molar excess of SPS-peptide, SDS-PAGE and densitometry (also seen with SHELδ26A, not shown) [3]: more full-length SHEL was evident compared with controls using trypsin, plasmin, kallikrein and serum

Reference: patent publication US7229788
